Experimental data published in patent US20190025332A1 (Novo Nordisk, published 2019).

B1: hGFRAL_C2_Fab_HPC4 (receptor)
chain: CLEVAEACVGDVVCNAQLASYLKACSANGNPCDLKQCQAAIRFFYQNIPFNIAQMLAFCDCAQSDIPCQQSKEALHSKTCAVNMVPPPTGGGGSGGGGSDVVMTQTPLSLPVSLGDQASISCRSSQSLLHSNGNTYLHWYLQKPGQSPKLLIYKVSNRFSGVPDRFSGSGSGTDFTLKISRVEAEDLGVYFCSQSTHVPWTFGGGTKLEIKRADAAPTVSIFPPSSEQLTSGGASVVCFLNNFYPKDINVKWKIDGSERQNGVLNSWTDQDSKDSTYSMSSTLTLTKDEYERHNSYTCEATHKTSTSPIVKSFNRNEC
heavy: EVQIQESGPSLVKPSQTLSLTCSVSGDSITSGYWNWIRKFPGHKIEYMGTISYSGDTYYNPSLKSRISITRDTSKNQYYLHLNSVTTEDTATYYCARYGSYVFDYWGQGTTLTVSSAKTTPPSVYPLAPGSAAQTNSMVTLGCLVKGYFPEPVTVTWNSGSLSSGVHTFPAVLQSDLYTLSSSVTVPSSTWPSETVTCNVAHPASSTKVDKKIVPRDCGGGGSEDQVDPRLIDGK
notes: C2 = amino acid 131-219 of UniProt Q6UXV0
B2: hGFRAL_C2C3_Fab_HPC4 (receptor)
chain: CLEVAEACVGDVVCNAQLASYLKACSANGNPCDLKQCQAAIRFFYQNIPFNIAQMLAFCDCAQSDIPCQQSKEALHSKTCAVNMVPPPTCLSVIRSCQNDELCRRHYRTFQSKCWQRVTRKCHEDENCISTLSKQDLTCSGSDDCKAAYIDILGTVLQVQCTCRTITQSEESLCKIFQHMLHRKSCFNYPTLSNVKGMALYTRKHANKITLTGFHSPFNGEGGGGSGGGGSDVVMTQTPLSLPVSLGDQASISCRSSQSLLHSNGNTYLHWYLQKPGQSPKLLIYKVSNRFSGVPDRFSGSGSGTDFTLKISRVEAEDLGVYFCSQSTHVPWTFGGGTKLEIKRADAAPTVSIFPPSSEQLTSGGASVVCFLNNFYPKDINVKWKIDGSERQNGVLNSWTDQDSKDSTYSMSSTLTLTKDEYERHNSYTCEATHKTSTSPIVKSFNRNEC
heavy: EVQIQESGPSLVKPSQTLSLTCSVSGDSITSGYWNWIRKFPGHKIEYMGTISYSGDTYYNPSLKSRISITRDTSKNQYYLHLNSVTTEDTATYYCARYGSYVFDYWGQGTTLTVSSAKTTPPSVYPLAPGSAAQTNSMVTLGCLVKGYFPEPVTVTWNSGSLSSGVHTFPAVLQSDLYTLSSSVTVPSSTWPSETVTCNVAHPASSTKVDKKIVPRDCGGGGSEDQVDPRLIDGK
B3: hGFRAL_C1C2_Fab_HPC4 (receptor)
chain: QTNNCTYLREQCLRDANGCKHAWRVMEDACNDSDPGDPCKMRNSSYCNLSIQYLVESNFQFKECLCTDDFYCTVNKLLGKKCINKSDNVKEDKFKWNLTTRSHHGFKGMWSCLEVAEACVGDVVCNAQLASYLKACSANGNPCDLKQCQAAIRFFYQNIPFNIAQMLAFCDCAQSDIPCQQSKEALHSKTCAVNMVPPPTGGGGSGGGGSDVVMTQTPLSLPVSLGDQASISCRSSQSLLHSNGNTYLHWYLQKPGQSPKLLIYKVSNRFSGVPDRFSGSGSGTDFTLKISRVEAEDLGVYFCSQSTHVPWTFGGGTKLEIKRADAAPTVSIFPPSSEQLTSGGASVVCFLNNFYPKDINVKWKIDGSERQNGVLNSWTDQDSKDSTYSMSSTLTLTKDEYERHNSYTCEATHKTSTSPIVKSFNRNEC
heavy: EVQIQESGPSLVKPSQTLSLTCSVSGDSITSGYWNWIRKFPGHKIEYMGTISYSGDTYYNPSLKSRISITRDTSKNQYYLHLNSVTTEDTATYYCARYGSYVFDYWGQGTTLTVSSAKTTPPSVYPLAPGSAAQTNSMVTLGCLVKGYFPEPVTVTWNSGSLSSGVHTFPAVLQSDLYTLSSSVTVPSSTWPSETVTCNVAHPASSTKVDKKIVPRDCGGGGSEDQVDPRLIDGK
B4: hGFRAL(ECR)-His (receptor, not shown: small tags and cut ends)
chain: SQTNNCTYLREQCLRDANGCKHAWRVMEDACNDSDPGDPCKMRNSSYCNLSIQYLVESNFQFKECLCTDDFYCTVNKLLGKKCINKSDNVKEDKFKWNLTTRSHHGFKGMWSCLEVAEACVGDVVCNAQLASYLKACSANGNPCDLKQCQAAIRFFYQNIPFNIAQMLAFCDCAQSDIPCQQSKEALHSKTCAVNMVPPPTCLSVIRSCQNDELCRRHYRTFQSKCWQRVTRKCHEDENCISTLSKQDLTCSGSDDCKAAYIDILGTVLQVQCTCRTITQSEESLCKIFQHMLHRKSCFNYPTLSNVKGMALYTRKHANKITLTGFHSPFNGE
B5: complex of wtMIC-1 and hGFRAL(ECR)-His (other)
chain 1: ARNGDHCPLGPGRCCRLHTVRASLEDLGWADWVLSPREVQVTMCIGACPSQFRAANMHAQIKTSLHRLKPDTVPAPCCVPASYNPMVLIQKTDTGVSLQTYDDLLAKDCHCI
chain 2: SQTNNCTYLREQCLRDANGCKHAWRVMEDACNDSDPGDPCKMRNSSYCNLSIQYLVESNFQFKECLCTDDFYCTVNKLLGKKCINKSDNVKEDKFKWNLTTRSHHGFKGMWSCLEVAEACVGDVVCNAQLASYLKACSANGNPCDLKQCQAAIRFFYQNIPFNIAQMLAFCDCAQSDIPCQQSKEALHSKTCAVNMVPPPTCLSVIRSCQNDELCRRHYRTFQSKCWQRVTRKCHEDENCISTLSKQDLTCSGSDDCKAAYIDILGTVLQVQCTCRTITQSEESLCKIFQHMLHRKSCFNYPTLSNVKGMALYTRKHANKITLTGFHSPFNGE
notes: Prepared by pre-incubating wtMIC-1 with hGFRAL(ECR)-His; also called wtMIC-1 + hGFRAL(ECR)-His; complex of MIC-1 and hGFRAL; not shown: His tag, not described

What was measured:
[1] = molecular target: T1, wild type human MIC-1 (human, UniProt Q99988 197-308); experiment: SPR; GFRAL fragment as analyte over immobilised wtMIC-1; relative to hGFRAL(ECR) set as 100%
T1 construct: also called wtMIC-1; hMIC-1
T1 sequence: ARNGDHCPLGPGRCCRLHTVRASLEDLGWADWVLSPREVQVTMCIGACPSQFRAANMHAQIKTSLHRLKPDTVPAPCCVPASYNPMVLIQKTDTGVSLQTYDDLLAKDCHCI
Method: MIC-1 interactions with soluble GFRAL fragments were assessed by SPR-based binding assay. A Biacore® 4000 (GE Healthcare, Piscataway, N.J., USA) instrument was used for SPR-based binding assay. The assays were performed at 25° C. at flow rates of 30 μL/minute in 1× HBS-P running buffer (BR-1006-71, GE Healthcare, Piscataway, N.J., USA). Purified GFRAL fragments at various concentrations were run as flow-through analyte and wtMIC-1 was immobilized as ligand. Please see FIG. 6 and Table 5.

[2] = molecular target: T2, hRET(ECR)-hIgG1.1_Fc (human); experiment: SPR; analyte 333 nM over immobilised hRet(ECR)-Fc
T2 construct: also called hRET(ECR)-Fc; hRet(ECR)-Fc
T2 sequence (chain, as listed by the source limits assumed): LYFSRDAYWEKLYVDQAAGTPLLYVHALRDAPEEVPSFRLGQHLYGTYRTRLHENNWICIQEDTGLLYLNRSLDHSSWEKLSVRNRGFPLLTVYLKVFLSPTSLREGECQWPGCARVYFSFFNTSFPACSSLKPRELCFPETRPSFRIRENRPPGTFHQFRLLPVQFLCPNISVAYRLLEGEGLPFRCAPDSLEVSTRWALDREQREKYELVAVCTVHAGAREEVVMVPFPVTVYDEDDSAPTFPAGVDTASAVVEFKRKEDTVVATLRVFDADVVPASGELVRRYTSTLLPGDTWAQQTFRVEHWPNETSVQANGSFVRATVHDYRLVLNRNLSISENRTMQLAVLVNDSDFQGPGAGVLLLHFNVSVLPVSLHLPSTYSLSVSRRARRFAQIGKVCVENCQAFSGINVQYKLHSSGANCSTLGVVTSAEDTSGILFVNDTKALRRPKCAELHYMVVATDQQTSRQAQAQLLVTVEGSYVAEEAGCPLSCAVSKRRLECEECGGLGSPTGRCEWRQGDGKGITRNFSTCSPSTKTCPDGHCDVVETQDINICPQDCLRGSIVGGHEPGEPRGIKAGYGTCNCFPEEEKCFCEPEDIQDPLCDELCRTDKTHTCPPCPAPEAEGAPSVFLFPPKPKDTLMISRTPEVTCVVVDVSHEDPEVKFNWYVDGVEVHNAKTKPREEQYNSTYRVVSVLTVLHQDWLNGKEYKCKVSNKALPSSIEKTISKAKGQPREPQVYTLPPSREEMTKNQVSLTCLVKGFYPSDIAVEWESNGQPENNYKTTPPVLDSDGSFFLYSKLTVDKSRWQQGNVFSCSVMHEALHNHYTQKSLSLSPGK
Method: (§1) hRet and complex of hGFRAL and MIC-1 interactions were assessed by SPR-based binding assay. A Biacore® 4000 (GE Healthcare, Piscataway, N.J., USA) instrument was used. The assays were performed at 25° C. at flow rates of 30 μL/minute in 1× HBS-P running buffer (BR-1006-71, GE Healthcare, Piscataway, N.J., USA). hRet(ECR)-Fc was immobilized through Fc as ligand on the chip. VISTA-Fc was immobilized as negative control ligand. The complex of MIC-1 and hGFRAL was prepared by pre-incubating wtMIC-1 with hGFRAL(ECR)-His. wtMIC-1, hGFRAL(ECR)-His, complex of wtMIC-1 and Ctrl-His, and complex of wtMIC-1 and hGFRAL(ECR)-His at various concentration were run as flow-through analyte.
(§2) Thus, it can be concluded that that hRet binds to hGFRAL in the presence of MIC-1; and Ret, MIC-1 and GFRAL forms a ternary complex.

[3] = molecular target: T2, hRET(ECR)-hIgG1.1_Fc; experiment: SPR; analyte 0 nM over immobilised hRet(ECR)-Fc
Method: as §1, §2

[4] = molecular target: T2, hRET(ECR)-hIgG1.1_Fc; experiment: SPR; analyte 37 nM over immobilised hRet(ECR)-Fc
Method: as §1, §2

[5] = molecular target: T3, VISTA-Fc; experiment: SPR; analyte 37 nM over immobilised VISTA-Fc (Ctrl-Fc)
T3 construct: Negative control ligand immobilised on the chip; also called Ctrl-Fc
Method: as §1, §2

[6] = molecular target: T2, hRET(ECR)-hIgG1.1_Fc; experiment: SPR; analyte 111 nM over immobilised hRet(ECR)-Fc
Method: as §1, §2

[7] = molecular target: T3, VISTA-Fc; experiment: SPR; analyte 111 nM over immobilised VISTA-Fc (Ctrl-Fc)
Method: as §1, §2

[8] = molecular target: T3, VISTA-Fc; experiment: SPR; analyte 333 nM over immobilised VISTA-Fc (Ctrl-Fc)
Method: as §1, §2

[9] = molecular target: T2, hRET(ECR)-hIgG1.1_Fc; experiment: SPR; analyte 1000 nM over immobilised hRet(ECR)-Fc
Method: as §1, §2

[10] = molecular target: T3, VISTA-Fc; experiment: SPR; analyte 12 nM over immobilised VISTA-Fc (Ctrl-Fc)
Method: as §1

[11] = molecular target: T3, VISTA-Fc; experiment: SPR; analyte 0 nM over immobilised VISTA-Fc (Ctrl-Fc)
Method: as §1, §2

[12] = molecular target: T3, VISTA-Fc; experiment: SPR; analyte 1000 nM over immobilised VISTA-Fc (Ctrl-Fc)
Method: as §1, §2

[13] = molecular target: T2, hRET(ECR)-hIgG1.1_Fc; experiment: SPR; analyte 12 nM over immobilised hRet(ECR)-Fc
Method: as §1, §2

Row | Binder | % of Binding [1] | Response (RU) [2] | Response (RU) [3] | Response (RU) [4] | Response (RU) [5] | Response (RU) [6] | Response (RU) [7] | Response (RU) [8] | Response (RU) [9] | Response (RU) [10] | Response (RU) [11] | Response (RU) [12] | Response (RU) [13]
1 | B1 | 21% |  |  |  |  |  |  |  |  |  |  |  | 
2 | B2 | 8% |  |  |  |  |  |  |  |  |  |  |  | 
3 | B3 | 87% |  |  |  |  |  |  |  |  |  |  |  | 
4 | B4 |  | -0.497 RU | 0 RU | -0.105 RU | -2.04 RU | 0.208 RU | -2.94 RU | -3.48 RU | -1.11 RU | -2.34 RU | 0 RU | -3.85 RU | -0.0397 RU
5 | B5 |  | 8.32 RU | 0 RU | 1.97 RU | -1.48 RU | 5.48 RU | -1.02 RU | -1.43 RU | 10.7 RU | -1.39 RU | 0 RU | -1.4 RU | 0.226 RU
